Measurements taken from the DeepSol protein solubility set.

Experiment: soluble on expression in E. coli; label from the status in PepcDB or PDB records

Row | Sequence | soluble on expression in E. coli
1 | MKFEDLLATNKQVQFAHAATQHYKSVKTPDFLEKDPHHKKFHNADGLNQQGSSTPSTATDANAASTASTHTNTTTFKRHIVAVDDISKMNYEMIKNSPGNVITNANQDEIDISTLKTRLYKDNLYAMNDNFLQAVNDQIVTLNAAEQDQETEDPDLSDDEKIDILTKIQENLLEEYQKLSQKERKWFILKELLLDANVELDLFSNRGRKASHPIAFGAVAIPTNVNANSLAFNRTKRRKINKNGLLENIL | soluble
2 | TGVSSFQEILDKGMVFVNRNKGSGTRDLIEELIGNNESIRKNMKGYLWETNTEAGVARAVEQGRADAGITLEYYAIKLGLKYTHINKENYDILISKEFYDSEYGQAFIKNLKGLKDRIKNYPGYSVPDDI | not soluble
3 | MTTDFTPWPEALAAQYRQLGYWQDKTLLDYLQQSAERTPNALALVGDNQQWRYQAMLERIEQLAAGFTELGLGCGDNVVLQLGNVAEFYLCFFALLRQGIRPILALPAHRLAEIRYFCQHSQAKAYLIDGAQRPFDYQALAQELLACCPTLQTVIVRGQTRVTDPKFIELASCYSASSCQANADPNQIAFFQLSGGTTGTPKLIPRTHNDYAYSVTASVEICRFDQHTRYLCVLPAAHNFPLSSPGALGVFWAGGCVVLSQDASPQHAFKLIEQHKITVTALVPPLALLWMDHAEKSTYDLSSLHFVQVGGAKFSEAAARRLPKALGCQLQQVFGMAEGLVNYTRLDDSAELIATTQGRPISAHDQLLVVDEQGQPVASGEEGYLLTQGPYTIRGYYRADQHNQRAFNAQGFYITGDKVKLSSEGYVIVTGRAKDQINRGGEKIAAEEVENQLLHHPAVHDAALIAISDEYLGERSCAVIVLKPEQSVNTIQLKRFLHQAGLADYKIPDQIQFIDQLPKTSVGKIDKNALRRRFDTLGLALMS | not soluble
4 | MSLGDVEEWVNPDQSTSQPVTKAALVEKTVAMTEAGKFASFFQEGELETIQKLRVSGPLDASDIDAIRYQMPRLEVLDMKEVELIESDKTYGAEDHREHYKLKKGVITPKMLQCFSLLVTLVLPKDITEIEDYGIYGNKNLVSIEIPVTVKKVGAHVFKSCSSLQKVDLPNVETLGERVFESCGKLTKVTLSPDLQVIPDYAFQYCGSLADVPLPSSLVSIGVSAFRDCSSLVDVPLPSSLVSIGTGAFANCKSLTSVDMPNTVTTLENGTYQNCTNLKDVKLSDNLKRIGAENDHYSGSSFEGCQNLASIDIPASVSWINSFSFKNCVNLKTVTFHEGLQVIGGKSFQGCSSLVSVSIPKSVTSIGDESFEYCSSLNEMNLSQEGTPEINSSAFAYSGLSSITIPETVTSVGGGILNGCSRLTSIFWECNRDVPNIIDLNSTSCLLYLSHDVKCPSTWKNVIEPGGVAQTIVLKNEKRYLCPKAFTANKISYTREFTMKTIPGKAAGWQTIILPFSVQTITDKDGNRLAPFMAEGDGIWKRFWLRELQADGTYKDVTAIEANKPYLIAMPNAEEYASEYCISGNVTFEADNVSLGETPEIVPTDGGAYSMYGTYDWVTGTRKVYALNLDNWSDGSVYYEKGSVFVPSLRDVAPFECYLQNNNPSASTRGFIGIVGSHASTRAGEGHHHHHH | soluble
5 | MSLDTSRRRRLARRSIAASFRLFLTVAKGLGVLDYRIDGAEILHQERGCLVVANHPTLIDYVLLASVMPETDCLVKSALLKNPFLGGVVRATDYLINSEAETLLPRCQQRLAQGDTILIFPEGTRTKPGEKMTLQRGAANIAVRCASDLRIVTIGCSEHLLDKQSKWYDVPPDRPFFTVAVHGRVEINKFYDATSQEPALAARQLNRHLLLQLQQGCLPLSGINNASALSGNEGHHHHHH | not soluble
6 | AESLPDLKIEKLDEGVYVHTSFEEVNGWGVVPKHGLVVLVNAEAYLIDTPFTAKDTEKLVTWFVERGYKIKGSISSHFHSASTGGIEWLNSRSIPTYASELTNELLKKDGKVQATNSFSGVNYWLVKNKIEVFYPGPGHTPDNVVVWLPERKILFGGCFIKPYGLGNLGDANIEAWPKSAKLLKSKYGKAKLVVPSHSEVGDASLLKLTLEQAVKGLNESKKPSKPSN | soluble
7 | MGSDKIHHHHHHMSSLATLAQPLADGTFQCLACQWRCTLAPGEIGRCHMRIGREEGIELINHGMISGAAIGPVEDHRLWHFFPDTTVLAIGGWGYALPIDQQRGPYGTLPTEPAKQRRLEPQRAADFALERLCRGVVWAFGEPAVNFEYVLALLQLSRAASRYTAIVTSGMLSLEALNELGPYLNGISLDLRGFSDNAYQRLGGISDWRHILRFAEEAQQRWKCHIEITTRIHHGVNDHPDELRDLVEWIKKTLGEETPWHVLPGDAGSETAAATKQARRIGHEGGLQFIYGHEPNQPTRCPSCHATLINRQHGVSRRVGLDGNRCSNCGYATNLYLSIFKVHRT | not soluble
8 | MSSFVLDFQEIEKTQLSLVGGKGLNLGALSNMQGIQVPEGFCVTTAGYEKAIEQNEELQALLQQLTKLKREERVRIGEISKKIRENIMAVQIPSDVVEAVAHYLSRFGNEHAYAVRSSATAEDLPYASFAGQQDTYLNIIGENAILQHVRKCWASLFTDRAVMYRMQNGFEHNQVSICVVVQKMVFPQASGILFTADPITSNRKVLSIDASFGLGEALVSGLVSADNYKVKEGEIIDKMIATKKLAIYALKEGGTETKQNDPVQQKIQTLSDQQILQLVQIGRQIEAYFGCPQDIEWCLVDHTFYIVQSRPITTLYPIPEENDEGNHVYISVGHQQMMTDAMKPLGLSFFLLTTNAPMRKAGGRLFVDATQQLVLPASRDYLINTLGKSDPLVRDALTTIIERDDFITLLPDEEKEKSASKSKPPVSSQPEIENDPAIVTELIRNSEASLEELKQNMQLKSGVDVFDFILEDIQQLKKVLFNPQSIAVIMAGMNASTWINEKMEQWLGEKNAADMLSQSVQNNITSEMGLALMDVADAIRPYPEVITYLQHVEDDSFLDELVQYKGGEKARDTIVAFLNKYGMRCSGEIDITKTRWSEKPTTIIPMILNNIRDFEAGASKQKFEKGLQEALNKEEELLDRLQHLPKGKQKVEETKRMIRNIRNFIGYREYPKYGMINRYFIYKQALLKEAEQLVQSGVICEVDDIYYLTFEELHEVVRTNKLDYELIQKQKNDYKLYEKLTPPRVMTSDGEIITGKYKRENLPADAIVGLPVSSGVVEGRARVILNMEEANLEEGDILVTAFTDPGWTPLFVSIKGLVTEVGGLMTHGAVIAREYGLPAVVGVENATKRIKDGQRIRVHGTEGYIEML | not soluble
9 | RFLSIKTSWEDYFLEDDPMIIKTEEFKSVFGNDNYAAVLTDCDNTFTKENLELIRRLSNEMLDSISYAEKITSLTDIEFMIGNEEGMAIEQIVPEEIPSDSAGLAEIRRKAFLKPYIADRLVSKDGTLTWILLKLNPFPSDSVWNKGKGAVAPEMVVGRELEHIIRKPEYAALHPKGAGMPYMTDRKMAWVNRE | not soluble
10 | MSLKQFSPDKMLNTPFGITAAQLRKMGKTTILTDLDNTLLAWDQLDATDEVINWFTILKEEGIKVMIFSNNNEERVARVAKAIDVPYLARAKKPLGANFRWALKEMDATPEETVMIGDQIMTDIFGGNRQKLTTIFVRPVKQTDGMATKLNRMMESVILKRLAKKNQIKWEESEGHHHHHH | soluble
11 | MSLRKNLEEEQRLIDAKKLSLVIDLDKTLIDTTEVRNRAEVDAIKKLDPAATEDDFFEFNMNQNLLIRYRPHVRQFLASIAPYFDMQIYTLASPAYAHAILSKIDPEDKLFKNRIFSRTAEDFAMIKEAMRNQTDIVNKKNIKKIFPYSDKLVLVLDDSPEVWFCDNNKLFKGLVQIKRYSYFTRQGPNSPPTVNPDYVNDDILIQMRSVLIDVHDMFYKNYDPEESHVIMTLHQRKAQVFEGKTFYFSGLSEDDTMTFTRLAEEFGALVVDSFTPYTTHIIVGEGGTDDQIQKAMEYRGVYIIYLKWLFECFIQYARIEESLYSIQGIPCPTEGHHHHHH | soluble
12 | ADKLRAACIRIQKTIRGWLLRKRYLCMQRAAITVQRYVRGYQARCYAKFLRRTKAATT | soluble
13 | MAKINELLRESTTTNSNSIGRPNLVALTRATTKLIYSDIVATQRTNQPVAAFYGIKYLNPDNEFTFKTGATYAGEAGYVDREQITELTEESKLTLNKGDLFKYNNIVYKVLEDTPFATIEESDLELALQIAIVLLKVRLFSDAASTSKFESSDSEIADARFQINKWQTAVKSRKLKTGITVELAQDLEANGFDAPNFLEDLLATEMADEINKDILQSLITVSKRYKVTGITDSGFIDLSYASAPEAGRSLYRMVCEMVSHIQKESTYTATFCVASARAAAILAASGWLKHKPEDDKYLSQNAYGFLANGLPLYCDTNSPLDYVIVGVVENIGEKEIVGSIFYAPYTEGLDLDDPEHVGAFKVVVDPESLQPSIGLLVRYALSANPYTVAKDEKEARIIDGGDMDKMAGRSDLSVLLGVKLPKIIIDE | soluble
14 | MGGWSNFKFLFLSPGGELYGVLNDKIYKGTPPTHDNDNWLGRAKKIGDGGWNQFQFLFFDPNGYLYAVSKDKLYKAPPPQSDTDNWIARATEIGSGG | soluble
15 | MKKDTDCTEILVGKTASMDGSTIVARNEDGYGPINPIKFIVHEAHDQTNASYTSVTTGVTVPLPDHAYRYTATPQADQSDGQYEEAGINELNVGMSATETTATNARVLGYDPLVHDGVDEEAMVTLVLPYIKSAKEGVQRLGALIEKYGTGESNSIAFNDHDDIWLFETAGGHHWGAVRMPEDTYAIVPNQTVVQEMDLNDTDNFLGASDLVDFVEKYHLNPTPGHFNFREIFGTQSEADAYYNTPRTWYGQKLFNPEIEQNPTDQNMPLFRQPSKKLAIEDVQFFLSSHYNGTPYDPFGTFASGNAREQTRYRSIAMDRNQCSSILQIRNDVPAKQAAIQWIALGFFAYAPYVPFFTNINDTPIDYRNTTSTVSVDNVYWLSKTLSVLIEPHWHEFAETVNAYRDECQSYARGRVAATDAAIAGNPTDFLTKANSETAAEISNRTHALFDTLVKQGLLLSKTTWEKGQNLLEHHHHHH | not soluble
16 | MGSLVREWVGFQQFPAATQEKLIEFFGKLKQKDMNSMTVLVLGKGGVGKSSTVNSLIGEQVVRVSPFQAEGLRPVMVSRTMGGFTINIIDTPGLVEAGYVNHQALELIKGFLVNRTIDVLLYVDRLDVYAVDELDKQVVIAITQTFGKEIWCKTLLVLTHAQFSPPDELSYETFSSKRSDSLLKTIRAGSKMRKQEFEDSAIAVVYAENSGRCSKNDKDEKALPNGEAWIPNLVKAITDVATNQRKAIHVDAAALEHHHHHH | soluble
17 | MSTTHNSLPASSDKHHDGHGEASLYHDSHGHAWSGNPNYTLTQLIPELRINLGSSLDIGSGEGADAAWLASLGWKAVGLEPSGVAVERSRELSSNATFIQGKVPQDLDRCGGPFDLVTGFYIPIAGEDAWRAIARQVADGGYLIYVHHNLDELRAKGHPLLGRDDLLMPFDAADLAPSGAWEIVVHETRHREIVGGHGHHHHLDDVLVLKRRKK | not soluble
18 | MGSDKIHHHHHHEELEYKGMNTLQISNVDDLISFYQYADDRIPLISGHRGGRGKGYPENSMETFENTLSYTPATFEIDPRLTKDSVIVLFHDDTLERTSNGTGKVSDYTWEELQNFRLKDPEGNITNYRIPTLEEAIRWARGKTILILDKKDVPMERTAQLITDMQAEPYVMITVHDGASARFFYEKNPNFMFEAFVKTKEAVQDYEDNGIPWSHIMAYVGPKITPEVREVIDMLHERGVMCMISTAPSDDKLSTPESRAEAYRMIIRQGVDIIESDRPIEVAEAISSLIPVSSSKGKFFSTL | not soluble
19 | MTKYRLHYFNARGYAEASRAMFHMAGVEFEDVRYEIDDWIKEENTLKNEMPFGQMPVLEVDGEKIPQSVAIARFVANQLGFAGQTPVEKAWADAFTDLYKDFLIDMKPWAMIAFGYPGAAGDRDELKKTSLDPAKEKYFKLLSKRLEKSKSGFLLDSGISFPDLFFFETTTSLIELEKGFLGTDFPVVNAYFKRIAEHPKLKPYLETRPYSSK | not soluble
